The values that follow come from publication PMC8221060, “Interplay between chromophore binding and domain assembly by the B12-dependent photoreceptor protein, CarH†” (Chemical Science, 2021).

Data set [1] concerns the target TtCarH G192Q variant (Thermus thermophilus) (UniProt Q53W62). The data set can be described thus: stopped-flow fluorescence; quenching of protein emission (excitation at 280 nm) after rapid mixing of apo-protein with AdoCbl at saturating concentrations (≥10×); kapp of the second phase against protein concentration, fit linearly; monomer to dimer step taken as rate-limiting.

Data set [2] shares this target. As to the kind of experiment: native MS; native ion mobility mass spectrometry; G192Q without AdoCbl; monomer to dimer.
Data set [3] has the same target. The data set can be described thus: native MS; native ion mobility mass spectrometry; G192Q with increasing molar ratios of AdoCbl; monomer to dimer.
Data set [4] concerns the molecule itself. As to the kind of experiment: native MS; native ion mobility mass spectrometry; WT TtCarH, 10 μM apo-protein, no B12 added; monomer to dimer.
Data set [5] deals with the molecule itself. As to the kind of experiment: stopped-flow fluorescence; quenching of protein emission (excitation at 280 nm) after rapid mixing of apo-protein with AdoCbl at saturating concentrations (≥10×); kapp of the second phase against protein concentration, fit linearly; monomer to dimer step taken as rate-limiting.
Data set [6] concerns the molecule itself. As to the kind of experiment: native MS; native ion mobility mass spectrometry; WT TtCarH, 10 μM apo-protein, with AdoCbl from sub-stoichiometric quantities to a two-fold excess.

As usually defined, the kon is a measure of how fast the partners come together. What is called stoichiometry N is the number of molecules, sites or subunits per partner or assembly. Turning to “TtCarH G192Q variant (from UniProt Q53W62 1-285) (natural protein)”, the kon in data set [1] is 45100 M⁻¹ s⁻¹. Moreover, the stoichiometry N in data set [2] and in data set [3] was 2 each time.

B1: CarH from Thermus thermophilus (TtCarH), wild type (natural protein)
chain: MTSSGVYTIAEVEAMTGLSAEVLRQWERRYGFPKPRRTPGGHRLYSAEDVEALKTIKRWLEEGATPKAAIRRYLAQEVRPEDLGTGLLEALLRGDLAGAEALFRRGLRFWGPEGVLEHLLLPVLREVGEAWHRGEIGVAEEHLASTFLRARLQELLDLAGFPPGPPVLVTTPPGERHEIGAMLAAYHLRRKGVPALYLGPDTPLPDLRALARRLGAGTVVLSAVLSEPLRALPDGALKDLAPRVFLGGQGAGPEEARRLGAEYMEDLKGLAEALWLPRGPEKEAI
notes: CarH, B12-dependent photoreceptor and transcriptional regulator of Thermus thermophilus; Written as the monomer, which associates with itself to dimers and tetramers; The cofactor (AdoCbl or MeCbl, small molecules) was added or left out as told in each assay; also called WT TtCarH; WT
As for B1, the “stoichiometry N” value in data set [4] was found to be 2; in data set [6] it was 4. The same molecule displayed a kon in data set [5] of 50400 ± 2300 M⁻¹ s⁻¹.
